The results in this text go back to paper PMC2778552.

This test deals with T1, human recombinant aromatase (human) (UniProt P11511).
T1 sequence: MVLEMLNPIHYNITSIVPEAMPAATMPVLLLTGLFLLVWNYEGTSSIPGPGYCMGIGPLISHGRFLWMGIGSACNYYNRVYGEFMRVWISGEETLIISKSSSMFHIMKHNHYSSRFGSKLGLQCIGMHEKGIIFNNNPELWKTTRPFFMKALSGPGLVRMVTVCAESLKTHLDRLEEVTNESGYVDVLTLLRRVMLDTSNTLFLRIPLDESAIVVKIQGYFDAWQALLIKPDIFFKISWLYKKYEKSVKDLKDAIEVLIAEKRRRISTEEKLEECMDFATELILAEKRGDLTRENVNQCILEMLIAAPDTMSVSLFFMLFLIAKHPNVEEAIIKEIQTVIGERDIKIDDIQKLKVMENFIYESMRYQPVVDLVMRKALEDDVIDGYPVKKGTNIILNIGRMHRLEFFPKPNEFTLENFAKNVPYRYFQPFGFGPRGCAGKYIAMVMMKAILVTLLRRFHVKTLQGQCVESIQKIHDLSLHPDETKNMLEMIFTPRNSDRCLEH

B1: NADPH-cytochrome P450 reductase (enzyme)
chain: MGDSHEDTSATMPEAVAEEVSLFSTTDMVLFSLIVGVLTYWFIFRKKKEEIPEFSKIQTTAPPVKESSFVEKMKKTGRNIIVFYGSQTGTAEEFANRLSKDAHRYGMRGMSADPEEYDLADLSSLPEIDKSLVVFCMATYGEGDPTDNAQDFYDWLQETDVDLTGVKFAVFGLGNKTYEHFNAMGKYVDQRLEQLGAQRIFELGLGDDDGNLEEDFITWREQFWPAVCEFFGVEATGEESSIRQYELVVHEDMDVAKVYTGEMGRLKSYENQKPPFDAKNPFLAAVTANRKLNQGTERHLMHLELDISDSKIRYESGDHVAVYPANDSALVNQIGEILGADLDVIMSLNNLDEESNKKHPFPCPTTYRTALTYYLDITNPPRTNVLYELAQYASEPSEQEHLHKMASSSGEGKELYLSWVVEARRHILAILQDYPSLRPPIDHLCELLPRLQARYYSIASSSKVHPNSVHICAVAVEYEAKSGRVNKGVATSWLRAKEPAGENGGRALVPMFVRKSQFRLPFKSTTPVIMVGPGTGIAPFMGFIQERAWLREQGKEVGETLLYYGCRRSDEDYLYREELARFHKDGALTQLNVAFSREQAHKVYVQHLLKRDREHLWKLIHEGGAHIYVCGDARNMAKDVQNTFYDIVAEFGPMEHTQAVDYVKKLMTKGRYSLDVWS
As to B1, the Km of aromatase for reductase from Lineweaver–Burk plots; tritiated water release from [1β-3H(N)]-androstenedione, 50 nM pure aromatase, reductase 1 nM to 20 nM, androstenedione 10 nM to 500 nM, 37°C turned out to be 1 nM.
